PMC9364715
Read-outs that look alike come from different tables or passages of the source.

Legend:
[1] = molecular target: Ad5 hexon with DogTag inserted at HVR5, on Ad-DogTag virions (human adenovirus 5 (Ad5)) (UniProt P04133); assay: SDS-PAGE gel shift
[2] = molecular target: Ad5 hexon with DogTag inserted at HVR5, on Ad-DogTag virions (human adenovirus 5 (Ad5)) (UniProt P04133); assay: SDS-PAGE gel shift; remark: listed apart in the source

DogCatcher (designed binder)
percent of hexon covalently coupled (% of hexon protein) [1]: > 90

DogCatcher-NANP9 (designed binder)
percent of hexon covalently coupled [1]: > 90 % of hexon

DogCatcher-NANP18 (designed binder)
percent of hexon covalently coupled [1]: > 90 % of hexon | percent of hexon covalently coupled [2]: > 90 % of hexon
